± gives the uncertainty stated by the source.

The values below come from the supplement of paper PMC7877785.

A short description of the series: self-splicing fitness, log relative to wild type (ln ratio); higher = more splicing; Tetrahymena group I intron in knt gene, E. coli kanamycin selection, DiMSum; sequences stand for … in CUCUCU…GGAGGGAAAAGUUAUCAGGCAUGCACCUGGUAGCUAGUCUUUAAACCAAUAGAUUGCAUCGGUUUAAAAGGCAAGACCGUCAAAUUGCGGGAAAGGGGUCAACAGCCGUUCAGUACCAAGUCUCAGGGGAAACUUUGAGAUGGCCUUGCAAAGGGUAUGGUAAUAAGCUGACGGACAUGGUCCUAACCACGCAGCCAAGUCCUAAGUCAACAGAUCUUCUGUUGAUAUGGAUGCAGUUCACAGACUAAAUGUCGGUCGGGGAAGAUGUAUUCUUCUCAUAAGAUAUAGUCGGACCUCUCCUUAAUGGGAGCUAGCGGAUGAAGUGAUGCAACACUGGAGCCGCUGGGAACUAAUUUGUAUGCGAAAGUAUAUUGAUUAGUUUUGGAGUACUCGUGGUCG
The gist of the method:
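The eight P1ex-region nucleotides of an intron in the knt kanamycin-resistance gene on pET-22b(+) were all randomised and the library put into E. coli BL21(DE3). Six replicate transformations were grown overnight at 37°C or 30°C on LB agar with or without 25 μg/mL kanamycin, together with 100 μg/mL carbenicillin, 50 μM IPTG and 0.2% rhamnose. Colonies were pooled and amplicon-sequenced on an Illumina HiSeq 2500. Fitness from DiMSum is the error-weighted combination of wild-type-normalised replicate fold changes, kanamycin over none.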

Take CGCUAGCAAUAUUACGUAAU: the “self-splicing fitness (ln)” value is, setting by setting: (30 °C) -3.03 ± 0.16; (37 °C) -1.53 ± 0.14. As for UCCUAGCAAUAUUACGUGCA, the “self-splicing fitness (ln)” value was -2.86 ± 0.29 (30 °C) and -1.72 ± 0.2 (37 °C). Regarding UUUAAGCAAUAUUACGUGAA, the “self-splicing fitness (ln)” value runs as follows: (30 °C) -0.503 ± 0.093; (37 °C) -0.616 ± 0.095.

Consider CAUGAGCAAUAUUACGAUAU, for which the “self-splicing fitness (ln)” value runs as follows: (30 °C) -3.32 ± 0.25; (37 °C) -2 ± 0.31. For the sequence ACCAAGCAAUAUUACGCCUU, the “self-splicing fitness (ln)” value by setting is: (30 °C) -2.87 ± 0.15; (37 °C) -1.97 ± 0.15. For UCCCAGCAAUAUUACGCCCU, in that order: -2.07 ± 0.15 and -1.03 ± 0.21. For ACAUAGCAAUAUUACGGCUG, in that order: -0.175 ± 0.067 and -0.366 ± 0.095. The like results for UAUUAGCAAUAUUACGAAGG were, in that order, -2.18 ± 0.22 and -0.523 ± 0.17.

As to UCGUAGCAAUAUUACGUAUA, the “self-splicing fitness (ln)” value (30 °C) is -2.92 ± 0.31 and the “self-splicing fitness (ln)” value (37 °C) was -1.01 ± 0.28. Regarding AAGUAGCAAUAUUACGUAAG, the “self-splicing fitness (ln)” value (30 °C) was -2.48 ± 0.13 and the “self-splicing fitness (ln)” value (37 °C) is -1.43 ± 0.14. For CAAUAGCAAUAUUACGCACG, in that order: -1.01 ± 0.19 and -1.12 ± 0.17. For ACUGAGCAAUAUUACGCUGG, in that order: -3.54 ± 0.2 and -1.4 ± 0.2. For the sequence UCUCAGCAAUAUUACGGGUC, the “self-splicing fitness (ln)” value runs as follows: (30 °C) -4.37 ± 0.34; (37 °C) -1.52 ± 0.16. Regarding AACAAGCAAUAUUACGAGAU, the “self-splicing fitness (ln)” value was -3.08 ± 0.14 (30 °C) and -1.62 ± 0.12 (37 °C). The like results for UCAUAGCAAUAUUACGUAAU were, in that order, -3.87 ± 0.48 and -2.61 ± 0.28. Turning to CGCCAGCAAUAUUACGUCGA, the “self-splicing fitness (ln)” value is -2.94 ± 0.12 (30 °C) and -1.24 ± 0.081 (37 °C). The like results for UGUUAGCAAUAUUACGUUUG were, in that order, -2.14 ± 0.16 and -1.26 ± 0.18. For the sequence ACGGAGCAAUAUUACGGUUG, the “self-splicing fitness (ln)” value is, setting by setting: (30 °C) -3.93 ± 0.31; (37 °C) -2.22 ± 0.18.

With ACUAAGCAAUAUUACGAAGC, the “self-splicing fitness (ln)” value by setting is: (30 °C) -3.67 ± 0.21; (37 °C) -3.25 ± 0.22. As for GAGUAGCAAUAUUACGAAAC, the “self-splicing fitness (ln)” value is, setting by setting: (30 °C) -2.82 ± 0.32; (37 °C) -2.56 ± 0.27. Regarding AUUAAGCAAUAUUACGCGCG, the “self-splicing fitness (ln)” value is, setting by setting: (30 °C) -0.63 ± 0.13; (37 °C) -0.752 ± 0.17.

For GCAAAGCAAUAUUACGGUAC, the “self-splicing fitness (ln)” value is -1.91 ± 0.086 (30 °C) and 0.0303 ± 0.092 (37 °C). In the case of CAUCAGCAAUAUUACGAGCG, the “self-splicing fitness (ln)” value is -0.443 ± 0.059 (30 °C) and 0.466 ± 0.072 (37 °C).

For GGAUAGCAAUAUUACGCAAU, the “self-splicing fitness (ln)” value is -1.83 ± 0.41 (30 °C) and -0.704 ± 0.23 (37 °C). On to AUGUAGCAAUAUUACGAACG, for which the “self-splicing fitness (ln)” value reads like this: (30 °C) -1.27 ± 0.13; (37 °C) -0.894 ± 0.16. In the case of CCUGAGCAAUAUUACGCAUU, the “self-splicing fitness (ln)” value is -4.02 ± 0.25 (30 °C) and -1.86 ± 0.23 (37 °C). For UACAAGCAAUAUUACGAGCA, in that order: -0.289 ± 0.067 and -0.0424 ± 0.075.

Take GCUUAGCAAUAUUACGCUGG: the “self-splicing fitness (ln)” value (37 °C) was -2.13 ± 0.3. Consider UAGUAGCAAUAUUACGGCUA, for which the “self-splicing fitness (ln)” value by setting is: (30 °C) 0.21 ± 0.14; (37 °C) -0.257 ± 0.19.

With GCCAAGCAAUAUUACGAGAC, the “self-splicing fitness (ln)” value was -2.73 ± 0.18 (30 °C) and -0.746 ± 0.12 (37 °C). For the sequence CCCGAGCAAUAUUACGGGUG, the “self-splicing fitness (ln)” value reads like this: (30 °C) -3.42 ± 0.18; (37 °C) -1.7 ± 0.12. The like results for ACCAAGCAAUAUUACGAUGC were, in that order, -2.45 ± 0.088 and -0.944 ± 0.11. The like results for GAGGAGCAAUAUUACGCUCU were, in that order, -2.18 ± 0.42 and -1.73 ± 0.47. Take CGGCAGCAAUAUUACGCGAC: the “self-splicing fitness (ln)” value by setting is: (30 °C) -4.41 ± 0.42; (37 °C) -1.36 ± 0.18. Consider UAGGAGCAAUAUUACGGAGA, for which the “self-splicing fitness (ln)” value (37 °C) is -2.34 ± 0.38. In the case of ACAUAGCAAUAUUACGCGAG, the “self-splicing fitness (ln)” value (30 °C) is -1.01 ± 0.07 and the “self-splicing fitness (ln)” value (37 °C) is -0.654 ± 0.079.

For the sequence GGGCAGCAAUAUUACGUAUG, the “self-splicing fitness (ln)” value reads like this: (30 °C) -3.15 ± 0.23; (37 °C) -1.44 ± 0.22.

With UGACAGCAAUAUUACGAGGU, the “self-splicing fitness (ln)” value is, setting by setting: (30 °C) -3.28 ± 0.15; (37 °C) -2.65 ± 0.21.
